T1: human plexin A1 protein sema domain (from glutamic acid at position 28 to serine at position 514) tagged at … (human, UniProt Q9UIW2 28-514)
T1 construct: also called human plexin A1 sema domain
T1 sequence: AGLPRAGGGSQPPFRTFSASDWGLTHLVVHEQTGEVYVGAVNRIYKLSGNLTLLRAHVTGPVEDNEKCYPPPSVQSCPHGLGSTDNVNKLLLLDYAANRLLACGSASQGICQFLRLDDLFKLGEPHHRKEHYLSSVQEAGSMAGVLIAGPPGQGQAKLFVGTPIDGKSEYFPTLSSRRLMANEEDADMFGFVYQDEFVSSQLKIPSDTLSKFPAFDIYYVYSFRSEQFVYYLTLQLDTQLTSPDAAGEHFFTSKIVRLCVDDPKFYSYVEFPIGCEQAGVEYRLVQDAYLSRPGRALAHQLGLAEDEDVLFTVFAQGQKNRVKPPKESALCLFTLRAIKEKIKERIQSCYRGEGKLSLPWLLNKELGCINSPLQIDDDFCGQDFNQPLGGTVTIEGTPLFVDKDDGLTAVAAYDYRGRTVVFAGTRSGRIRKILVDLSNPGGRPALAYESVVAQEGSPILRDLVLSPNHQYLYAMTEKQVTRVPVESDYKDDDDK

B1: PLR4H264#061 (antibody, human IgG1, lambda, V domains shown)
VH: QVQLQQSGPGLVKPSQTLSLTCAISGDSVSSNSAAWNWIRQSPSRGLEWLGRTYYRSKWYNDYAVSVKSRITINPDTSKNQFSLQLNSVTPEDTAVYYCARDRGYSYGFDYWGQGTLVTVSS
VL: SYELTQPPSVAVSPGQTASITCSGHKLGEKYASWYQQKPGQSPVLVIYQDTKRPSGIPERFSGSNSGNTATLTISGTQAMDEADYYCQAWDSSSVCVFGTGTKVTVLG
notes: IgG from the 264H-NL library
B2: PLR3H264#022 (antibody, human IgG1, lambda, V domains shown)
VH: B1 VH
VL: SYVLTQPRSVSVSPGQTTRITCSGQNLGEKYISWYRQKPGQSPEVLIYEDKRRPSGIPERISGANSGGTATLTISGTQAMDEADYFCQAWVSSTEGVFGGGTRLTVLR
notes: IgG from the 264H-NL library
B3: PLR2H264#002 (antibody, human IgG1, lambda, V domains shown)
VH: B1 VH
VL: SYELTQPPSVSVSPGQTASITCSGDKLGNKYVSWYQRRPGQSPVLVIYQDSKRPSGIPERFSGSNSGNTATLTISGTQSMDEADYYCQAWYSSSVGVFGGGTRLTVLG
notes: IgG from the 264H-NL library
B4: hPANLB2-3_359 (antibody, human IgG1, lambda, V domains shown)
VH: QVQLVQSGAEVKKPGASVKVSCKASGYTFTSYYMHWVRQAPGQGLEWMGIINPSGGSTSYAQKFQGRVTMTRDTSTSTVYMELSSLRSEDTAVYYCARAPGHYYYGMDVWGQGTTVTVSS
VL: SYELTQPPSVSVSPGQTASITCSGDKVGEKYASWYQQRPGQSPVLVIYQDTKRPSGIPERFSGSNSGNTATLTISGTQAIDDADYYCQAWDNSAYVIFGGGTKLTVLG
notes: Parent anti-plexin A1 antibody, IgG
B5: hPANLB2-3_264 (antibody, human IgG1, lambda, V domains shown)
VH: B1 VH
VL: B3 VL with E3L, N29Q, Y31F, R37Q, S51T, S79A, Y91D, S94T, V95A, R103N
notes: as for B4
B6: hPANLB2-3_342 (antibody, human IgG1, lambda, V domains shown)
VH: EVQLVQSGAEVKKPGASVKVSCKASGYTFTSYGISWVRQAPGQGLEWMGWISAYNGNTNYAQKLQGRVTMTTDTSTSTAYMELRSLRSDDTAVYYCARHAGYYYGMDVWGKGTMVTVSS
VL: B1 VL with A11S, H25D, T51S, T69M, M80V, A89T, S93N, S94T, V95A, C96F
notes: as for B4

Changes are numbered by the printed parent chain.

In general, Kd refers to the concentration at which binding is half-saturated. A higher Kd goes with lower affinity.

In one experiment the target is T1, human plexin A1 protein sema domain …. Put plainly: SPR, Biacore T200; KD against parent antibody hPANLB2-3_264. Here is the method:
(§1) Each antibody obtained in the paragraph (10-1) was evaluated for its binding activity against the antigen by surface plasmon resonance (SPR) analysis.
(§2) In the SPR analysis, the antibody was analyzed using Biacore T200 (GE Healthcare Japan Corp.). The anti-human plexin A1 antibody was immobilized onto the surface of Sensor Chip CM4 using Recombinant Protein A/G (Thermo Fisher Scientific Inc.) and Amine Coupling Kit (GE Healthcare Japan Corp.). The antigen used was a human plexin A1 protein sema domain (from glutamic acid at position 28 to serine at position 514) tagged at the C terminus of the protein with FLAG tag. The antigen was prepared as follows: an expression vector carrying a cDNA corresponding to the human plexin A1 sema domain was transferred to FreeStyle 293 cells. After culture, the obtained culture solution was passed through an anti-FLAG-M2 antibody-immobilized affinity column. A fraction eluted with the FALG peptide was purified by gel filtration. The obtained antigen was serially diluted with 20 mM ACES, 150 mM NaCl, 0.05% polysorbate 20, and 1.2 mM CaCl₂ (pH 7.4) and added to the sensor chip at a flow rate of 30 μL/min. In this assay system, the dissociation constant (KD) between the human plexin A1 protein and the anti-human plexin A1 antibody was calculated using data analysis software (BIA T200 Evaluation software ver. 2).
Turning to B1, the “Relative KD improvement” value was 4.2 fold.

For the molecule B2, the “Relative KD improvement” value amounted to 3 fold.

Take B3: the “Relative KD improvement” value stood at 1.3 fold.

The target is the same in the next experiment. Put plainly: SPR, Biacore T200; antibody held by Protein A/G on CM4 chip, sema domain as analyte. How it is done: as §1, §2
In turn, B4 yielded a Kd of 13.5 nM.

B5 had a Kd of 173 nM.

B1 came in with a Kd of 41 nM.

With B2, the Kd turned out to be 56.9 nM.

Take B3: the Kd amounted to 138 nM.

For B6, the Kd is 34.5 nM.

Another experiment has the same target. Put plainly: SPR, Biacore T200; the parent antibody itself (control). Here is the method:
as §1, §2
For orientation: Surface plasmon resonance follows binding to a sensor surface in real time, without labels.
Regarding B4, the “Relative KD improvement” value was 1 fold.

Regarding B5, the “Relative KD improvement” value stood at 1 fold.

In the case of B6, the “Relative KD improvement” value stood at 1 fold.
